The Kd is the concentration at which binding is half-saturated. Read a low Kd as a tighter complex.

The values that follow come from article PMC4358367, “Structural basis of diverse membrane target recognitions by ankyrins” (eLife, 2014).

The target in experiment [1] is AnkG_repeats (24 ANK repeats of rat 190 kDa ankyrin-G, residues 38–855) (rat) (UniProt O70511). As to the kind of experiment: ITC; VP-ITC at 25°C; 50 mM Tris pH 7.5, 100 mM NaCl, 1 mM EDTA, 1 mM DTT; binding partner (AS, Nav1.2 ABD proteins, neurofascin ABD; 200–300 µM) in the syringe, ANK repeats (20–30 µM) in the cell; one-site binding model. (In general: In ITC the heat of successive injections is recorded.)

The target of experiment [2] is T1, AnkR_repeats (24 ANK repeats of ankyrin-R, residues 42–853) (mouse, UniProt Q02357-6 42-853).
T1 chain: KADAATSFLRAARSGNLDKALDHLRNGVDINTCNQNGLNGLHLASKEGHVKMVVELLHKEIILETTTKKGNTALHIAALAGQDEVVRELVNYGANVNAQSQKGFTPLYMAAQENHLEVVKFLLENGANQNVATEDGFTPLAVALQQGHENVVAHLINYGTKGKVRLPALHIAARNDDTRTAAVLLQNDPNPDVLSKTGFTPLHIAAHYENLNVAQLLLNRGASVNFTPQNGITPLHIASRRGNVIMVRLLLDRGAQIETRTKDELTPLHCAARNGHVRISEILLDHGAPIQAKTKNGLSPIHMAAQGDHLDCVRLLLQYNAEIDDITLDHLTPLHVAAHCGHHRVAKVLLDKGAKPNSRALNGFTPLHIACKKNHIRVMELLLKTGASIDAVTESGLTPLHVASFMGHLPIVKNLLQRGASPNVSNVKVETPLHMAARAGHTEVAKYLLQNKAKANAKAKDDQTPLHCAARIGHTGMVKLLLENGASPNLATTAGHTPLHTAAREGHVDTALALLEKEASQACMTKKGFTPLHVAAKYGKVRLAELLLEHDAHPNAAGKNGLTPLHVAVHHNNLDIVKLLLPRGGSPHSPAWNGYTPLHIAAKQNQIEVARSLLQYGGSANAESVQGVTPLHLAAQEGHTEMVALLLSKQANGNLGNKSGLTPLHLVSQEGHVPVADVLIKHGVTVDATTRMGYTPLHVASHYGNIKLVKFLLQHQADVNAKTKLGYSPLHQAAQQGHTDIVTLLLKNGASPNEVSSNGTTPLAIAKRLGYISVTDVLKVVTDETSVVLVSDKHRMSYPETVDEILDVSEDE
Description: ITC.

Experiment [3] deals with T2, Nav1.2_ABD (ankyrin binding domain of Nav1.2, residues 1035–1129).
T2 chain: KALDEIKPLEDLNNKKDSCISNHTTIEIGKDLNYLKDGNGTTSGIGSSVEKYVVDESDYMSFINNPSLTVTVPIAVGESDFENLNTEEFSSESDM
Description: ITC. Conditions: chain shown with the change.

The target in experiment [4] is FITC-labeled AnkR_AS peptide (mouse). As to the kind of experiment: fluorescence polarisation; FITC-labeled peptide (~1 µM) titrated with AnkB_repeats WT or mutants; 25°C; 50 mM Tris pH 8.0, 100 mM NaCl, 1 mM DTT, 1 mM EDTA; one-site binding model. (In general: Fluorescence polarisation rises when a labelled molecule tumbles more slowly, as on binding a larger partner.)

Molecule “E1112Q-Nav1.2 (ABD with E1112Q) (domain or fragment)” displayed a fold weaker binding than wild-type Nav1.2 in experiment [1] of 30 fold.
With “Nav1.2_ABD-C (27-residue motif of loop 2, residues 1103–1129) (domain or fragment)”, the fold weaker affinity than the entire ABD in experiment [1] is 15 fold.
Regarding “Nav1.2_ABD (ankyrin binding domain of Nav1.2, residues 1035–1129) (domain or fragment)”, the equilibrium dissociation constant (Kd) in experiment [1] is 170 nM.
In experiment [1], “Nfasc_ABD (28-residue fragment of the neurofascin cytoplasmic tail, residues 1187–1214) (domain or fragment)” showed a Kd of 210 nM.
In turn, “E1112A-Nav1.2 (ABD with E1112A) (domain or fragment)” gave a fold weaker binding than wild-type Nav1.2 in experiment [1] of 30 fold.

B1: AnkR 1529-1672 (protein)
chain: RQSRNLKPERRHGDREYSLSPSQVNGYSSLQDELLSPASLQYALPSPLCADQYWNEVTVIDAIPLAATEHDTMLEMSDMQVWSAGLTPSLVTAEDSSLECSKAEDSDAIPEWKLEGAHSEDTQGPELGSQDLVEDDTVDSDATN
B1 returned an equilibrium dissociation constant (Kd) in experiment [2] of 1100 nM.

B2: AnkR 1589-1612 (peptide)
chain: DAIPLAATEHDTMLEMSDMQVWSA
In the case of B2, in experiment [2], the dissociation constant Kd was 23000 nM.

B3: AnkG_repeats (24 ANK repeats of rat 190 kDa ankyrin-G, residues 38–855), O70511 T94A; N98E (protein)
chain: KSDANASYLRAARAGHLEKALDYIKNGVDVNICNQNGLNALHLASKEGHVEVVSELLQREANVDAAAKKGETALHIASLAGQAEVVKVLVTNGANVNAQSQNGFTPLYMAAQENHLEVVRFLLDNGASQSLATEDGFTPLAVALQQGHDQVVSLLLENDTKGKVRLPALHIAARKDDTKAAALLLQNDTNADIESKMVVNRATESGFTPLHIAAHYGNINVATLLLNRAAAVDFTARNDITPLHVASKRGNANMVKLLLDRGAKIDAKTRDGLTPLHCGARSGHEQVVEMLLDRAAPILSKTKNGLSPLHMATQGDHLNCVQLLLQHNVPVDDVTNDYLTALHVAAHCGHYKVAKVLLDKKANPNAKALNGFTPLHIACKKNRIRVMELLLKHGASIQAVTESGLTPIHVAAFMGHVNIVSQLMHHGASPNTTNVRGETALHMAARSGQAEVVRYLVQDGAQVEAKAKDDQTPLHISARLGKADIVQQLLQQGASPNAATTSGYTPLHLSAREGHEDVAAFLLDHGASLSITTKKGFTPLHVAAKYGKLEVASLLLQKSASPDAAGKSGLTPLHVAAHYDNQKVALLLLDQGASPHAAAKNGYTPLHIAAKKNQMDIATSLLEYGADANAVTRQGIASVHLAAQEGHVDMVSLLLSRNANVNLSNKSGLTPLHLAAQEDRVNVAEVLVNQGAHVDAQTKMGYTPLHVGCHYGNIKIVNFLLQHSAKVNAKTKNGYTPLHQAAQQGHTHIINVLLQNNASPNELTVNGNTALAIARRLGYISVVDTLKVVTEEIMTTTTITEKHKMNVPETMNEVLDMS
In experiment [3], B3 yielded a Kd of 2600 nM.

B4: AnkR 1589-1624 (peptide)
chain: DAIPLAATEHDTMLEMSDMQVWSAGLTPSLVTAEDS
Take B4: the affinity in experiment [2], expressed as Kd, was 2200 nM.

B5: AnkR 1601-1672 (protein)
chain: MLEMSDMQVWSAGLTPSLVTAEDSSLECSKAEDSDAIPEWKLEGAHSEDTQGPELGSQDLVEDDTVDSDATN
For B5, the dissociation constant Kd in experiment [2] was over 50000 nM.

B6: AnkR 1577-1612 (peptide)
chain: CADQYWNEVTVIDAIPLAATEHDTMLEMSDMQVWSA
Regarding B6, the Kd in experiment [2] was found to be 2000 nM.

B7: AnkR 1529-1600 (protein)
chain: RQSRNLKPERRHGDREYSLSPSQVNGYSSLQDELLSPASLQYALPSPLCADQYWNEVTVIDAIPLAATEHDT
For the molecule B7, the equilibrium dissociation constant (Kd) in experiment [2] is over 50000 nM.

B8: AnkB_repeats (24 ANK repeats of human 220 kDa ankyrin-B, residues 28–873) (domain or fragment)
chain: KSDSNASFLRAARAGNLDKVVEYLKGGIDINTCNQNGLNALHLAAKEGHVGLVQELLGRGSSVDSATKKGNTALHIASLAGQAEVVKVLVKEGANINAQSQNGFTPLYMAAQENHIDVVKYLLENGANQSTATEDGFTPLAVALQQGHNQAVAILLENDTKGKVRLPALHIAARKDDTKSAALLLQNDHNADVQSKMMVNRTTESGFTPLHIAAHYGNVNVATLLLNRGAAVDFTARNGITPLHVASKRGNTNMVKLLLDRGGQIDAKTRDGLTPLHCAARSGHDQVVELLLERGAPLLARTKNGLSPLHMAAQGDHVECVKHLLQHKAPVDDVTLDYLTALHVAAHCGHYRVTKLLLDKRANPNARALNGFTPLHIACKKNRIKVMELLVKYGASIQAITESGLTPIHVAAFMGHLNIVLLLLQNGASPDVTNIRGETALHMAARAGQVEVVRCLLRNGALVDARAREEQTPLHIASRLGKTEIVQLLLQHMAHPDAATTNGYTPLHISAREGQVDVASVLLEAGAAHSLATKKGFTPLHVAAKYGSLDVAKLLLQRRAAADSAGKNGLTPLHVAAHYDNQKVALLLLEKGASPHATAKNGYTPLHIAAKKNQMQIASTLLNYGAETNIVTKQGVTPLHLASQEGHTDMVTLLLDKGANIHMSTKSGLTSLHLAAQEDKVNVADILTKHGADQDAHTKLGYTPLIVACHYGNVKMVNFLLKQGANVNAKTKNGYTPLHQAAQQGHTHIINVLLQHGAKPNATTANGNTALAIAKRLGYISVVDTLKVVTEEVTTTTTTITEKHKLNVPETMTEVLDVSDEEGDDTMTGDGGEYLRPEDLKELGDD
B8: the Kd in experiment [4] was 140 nM.

B9: AnkB_repeats site 1 mutant 'FF' (Phe131 and Phe164 to Gln) (domain or fragment)
chain: KSDSNASFLRAARAGNLDKVVEYLKGGIDINTCNQNGLNALHLAAKEGHVGLVQELLGRGSSVDSATKKGNTALHIASLAGQAEVVKVLVKEGANINAQSQNGQTPLYMAAQENHIDVVKYLLENGANQSTATEDGQTPLAVALQQGHNQAVAILLENDTKGKVRLPALHIAARKDDTKSAALLLQNDHNADVQSKMMVNRTTESGFTPLHIAAHYGNVNVATLLLNRGAAVDFTARNGITPLHVASKRGNTNMVKLLLDRGGQIDAKTRDGLTPLHCAARSGHDQVVELLLERGAPLLARTKNGLSPLHMAAQGDHVECVKHLLQHKAPVDDVTLDYLTALHVAAHCGHYRVTKLLLDKRANPNARALNGFTPLHIACKKNRIKVMELLVKYGASIQAITESGLTPIHVAAFMGHLNIVLLLLQNGASPDVTNIRGETALHMAARAGQVEVVRCLLRNGALVDARAREEQTPLHIASRLGKTEIVQLLLQHMAHPDAATTNGYTPLHISAREGQVDVASVLLEAGAAHSLATKKGFTPLHVAAKYGSLDVAKLLLQRRAAADSAGKNGLTPLHVAAHYDNQKVALLLLEKGASPHATAKNGYTPLHIAAKKNQMQIASTLLNYGAETNIVTKQGVTPLHLASQEGHTDMVTLLLDKGANIHMSTKSGLTSLHLAAQEDKVNVADILTKHGADQDAHTKLGYTPLIVACHYGNVKMVNFLLKQGANVNAKTKNGYTPLHQAAQQGHTHIINVLLQHGAKPNATTANGNTALAIAKRLGYISVVDTLKVVTEEVTTTTTTITEKHKLNVPETMTEVLDVSDEEGDDTMTGDGGEYLRPEDLKELGDD
On to B9, for which, in experiment [4], the fold decrease in AnkR AS binding against WT ANK repeats was found to be 20 fold.

B10: AnkR 1529-1825 (protein)
chain: RQSRNLKPERRHGDREYSLSPSQVNGYSSLQDELLSPASLQYALPSPLCADQYWNEVTVIDAIPLAATEHDTMLEMSDMQVWSAGLTPSLVTAEDSSLECSKAEDSDAIPEWKLEGAHSEDTQGPELGSQDLVEDDTVDSDATNGLADLLGQEEGQRSEKKRQEVSGTEQDTETEVSLVSGQQRVHARITDSPSVRQVLDRSQARTLDWDKQGSTAVHPQEATQSSWQEEVTQGPHSFQRRITTIQGPEPGALQEYEQVLVSTREHVQRGPPETGSPKAGKEPSLWAPESAFSQEVQ
The molecule B10 returned a Kd in experiment [2] of 1000 nM.
